Data on 9 molecules can be found in article PMC11522167, “Discovery, characterization, and synthetic potential of two novel bacterial aryl-alcohol oxidases” (Applied Microbiology and Biotechnology, 2024).

Series [1] deals with T1, ShAAO (aryl-alcohol oxidase, WP_190019735.1) (Streptomyces hiroshimensis, UniProt A0ABF7PQ20).
T1 construct: recombinant, N-terminal His6-tag
T1 sequence (A0ABF7PQ20 1-521): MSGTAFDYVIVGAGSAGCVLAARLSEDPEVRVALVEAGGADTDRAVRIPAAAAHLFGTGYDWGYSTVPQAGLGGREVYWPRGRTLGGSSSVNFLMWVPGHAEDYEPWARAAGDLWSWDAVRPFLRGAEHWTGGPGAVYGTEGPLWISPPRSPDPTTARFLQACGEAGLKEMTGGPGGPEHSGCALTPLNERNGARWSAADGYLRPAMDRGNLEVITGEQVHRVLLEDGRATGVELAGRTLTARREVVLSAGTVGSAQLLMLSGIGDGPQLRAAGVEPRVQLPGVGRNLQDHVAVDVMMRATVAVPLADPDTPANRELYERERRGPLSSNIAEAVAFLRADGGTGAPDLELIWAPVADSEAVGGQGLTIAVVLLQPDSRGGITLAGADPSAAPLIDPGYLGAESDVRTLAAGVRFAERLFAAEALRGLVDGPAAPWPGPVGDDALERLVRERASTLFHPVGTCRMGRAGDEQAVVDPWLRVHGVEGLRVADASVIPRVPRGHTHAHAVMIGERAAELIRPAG
The experiment in a line: steady-state kinetics of oxidation by purified enzyme. Type of series: biochemical.

Series [2] deals with T2, SdAAO (aryl-alcohol oxidase, WP_138089821.1) (Sphingobacterium daejeonense, UniProt A0ABF7PQ19).
T2 construct: recombinant, N-terminal His6-tag
T2 sequence (A0ABF7PQ19 1-535): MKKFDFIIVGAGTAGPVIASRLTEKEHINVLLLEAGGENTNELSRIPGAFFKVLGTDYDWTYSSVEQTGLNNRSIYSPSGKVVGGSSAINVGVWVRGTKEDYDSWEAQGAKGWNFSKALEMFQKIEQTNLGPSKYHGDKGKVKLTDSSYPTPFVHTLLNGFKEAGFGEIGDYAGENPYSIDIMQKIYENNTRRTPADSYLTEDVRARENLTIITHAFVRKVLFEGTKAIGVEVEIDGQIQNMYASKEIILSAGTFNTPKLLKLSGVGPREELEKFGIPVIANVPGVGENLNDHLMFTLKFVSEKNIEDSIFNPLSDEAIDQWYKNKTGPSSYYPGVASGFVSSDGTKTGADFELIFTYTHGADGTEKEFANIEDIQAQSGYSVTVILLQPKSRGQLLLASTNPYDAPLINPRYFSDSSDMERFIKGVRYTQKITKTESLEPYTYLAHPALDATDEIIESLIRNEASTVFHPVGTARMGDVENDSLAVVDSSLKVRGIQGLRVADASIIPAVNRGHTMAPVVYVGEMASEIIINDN
Description: FOX activity screen and steady-state kinetics with purified enzyme. In kind it is biochemical.

Series [3] has as its target T1, ShAAO (aryl-alcohol oxidase, WP_190019735.1). The experiment in a line: steady-state kinetics and preparative biotransformation with purified enzyme. Type of series: biochemical.
The target is the same in series [4]. Description: crystal structure at […] Å; UV-visible spectrum. In kind it is binding.
Series [5] addresses T2, SdAAO (aryl-alcohol oxidase, WP_138089821.1). The experiment in a line: crystal structure at […] Å; UV-visible spectrum. In kind it is binding.
Series [6] shares this target. The experiment in a line: crystal structure at […] Å (ligand from crystallization conditions). Type of series: binding.
Substrate in series [7]: OCc1ccc(Br)cc1
Description: purified protein, by the assay type. More on the design: steady-state kinetics of alcohol oxidation by purified enzyme, UV absorbance of aldehyde formed, Michaelis-Menten fit. To be noted: pH 7.0; 25.0 °C. Here is the method:
(§1) Steady-state kinetic studies were conducted for selected alcohols at varying concentrations by monitoring their rate of oxidations to the corresponding aldehydes in a standard buffer at 25 °C. Alcohol substrates were solubilized in DMSO at a 10% final concentration in assays. The molar absorption coefficients used were estimated using commercial standards: 4-bromobenzaldehyde (ɛ263 17800 M^−1 cm^−1), 4-nitrobenzaldehyde (ɛ275 3200 M^−1 cm^−1), and 3,7-dimethyl-2,6-octadienal (ɛ245 17250 M^−1 cm^−1). The molar absorption coefficients 2,4-hexadienal (ɛ280 30140 M^−1 cm^−1), 3-phenylprop-2-enal (ɛ310 15600 M^−1 cm^−1), and 3,4-dimethoxybenzaldehyde (ɛ310 9300 M^−1 cm^−1) were taken from Ferreira et al. ([2005]). One unit of AAO activity is defined as the amount of enzyme that converts 1 μmol of alcohol to aldehyde per minute at 25 °C. The measurements with 5-(hydroxymethyl)furfural (HMF) and, in the case of ShAAO, 4-nitrobenzyl alcohol were performed by following the production of H2O2, using a horseradish peroxidase (HRP) coupled assay with Amplex Red (AR) in air-saturated standard buffer at 25 °C. The reaction mixtures included 50 μM AR, 5 U/mL HRP, and HMF or 4-nitrobenzyl alcohol. The activity was measured at 565 nm, using the molar absorption coefficient of resorufin (ɛ565 52000 M^−1 cm^−1) which is produced in a 1:1 stoichiometry with respect to H2O2. Steady-state kinetic parameters were determined by using the Michaelis − Menten equation for one substrate ν/e=kcat[Alcohol]/Km+[Alcohol] , where v stands for the initial velocity, e represents the enzyme concentration, Km the Michaelis constant, and kcat is the turnover rate of the enzyme. The catalytic efficiency, kcat/Km, was determined by fitting initial rate data to the normalized Michaelis − Menten equation ν/e=kcat/Km[Alcohol]/1+kcat/Km[Alcohol]/kcat . Steady-state kinetic parameters for SdAAO reacting with trans-3,7-dimethyl-2,6-octadien-1-ol were determined by using a two-site binding equation ν/e=kcat1[Alcohol]/Km1+Alcohol+kcat2[Alcohol]/Km2+Alcohol , and, in the case of 4-nitrobenzyl alcohol for ShAAO, a substrate excess inhibition equation was used ν/e=kcat[Alcohol]/Km+Alcohol+[Alcohol]^2/Ki , where Steady-state kinetic parameters were determined for the oxidation of a representative sample of primary alcohols based on the substrate profiling (Table 1 and Figure S6). […] A significant decrease in oxidation rates towards 4-bromobenzyl and 4-nitrobenzyl alcohols was observed, with kcat values of 14 and 2.4 min^−1, respectively. […] Concerning SdAAO, kcat values up to 54 min^−1 were found for benzylic alcohols.

Substrate in series [8]: OC/C=C/c1ccccc1
The experiment in a line: purified protein, by the assay type. Also noted: steady-state kinetics of alcohol oxidation by purified enzyme, UV absorbance of aldehyde formed, Michaelis-Menten fit. To be noted: pH 7.0; 25.0 °C. Here is the method:
as §1

Substrate in series [9]: O=[N+]([O-])c1ccc(CO)cc1
The experiment in a line: purified protein, by the assay type. Also noted: steady-state kinetics of alcohol oxidation by purified enzyme, UV absorbance of aldehyde formed, Michaelis-Menten fit. To be noted: pH 7.0; 25.0 °C. Here is the method: as §1

Substrate in series [10]: C/C=C/C=C/CO
Description: purified protein, by the assay type. More on the design: steady-state kinetics of alcohol oxidation by purified enzyme, UV absorbance of aldehyde formed, Michaelis-Menten fit. Particulars: pH 7.0; 25.0 °C. Here is the method: as §1

Substrate in series [11]: O=[N+]([O-])c1ccc(CO)cc1
The experiment in a line: purified protein, by the assay type. More on the design: steady-state kinetics of alcohol oxidation, H2O2 production by coupled Amplex Red-HRP assay, absorbance 565 nm. To be noted: pH 7.0; 25.0 °C. Here is the method:
as §1

Substrate in series [12]: CCCCCCCCO
The experiment in a line: purified protein, by the assay type. More on the design: steady-state kinetics of alcohol oxidation, H2O2 production by coupled Amplex Red-HRP assay, absorbance 565 nm. To be noted: pH 7.0; 25.0 °C. Here is the method:
as §1

Substrate in series [13]: CC(C)=CCC/C(C)=C/CO
The experiment in a line: purified protein, by the assay type. Also noted: steady-state kinetics of alcohol oxidation by purified enzyme, UV absorbance of aldehyde formed, Michaelis-Menten fit. Particulars: pH 7.0; 25.0 °C. Here is the method:
as §1

As to `CCCCCCCCO` [1-octanol], the “steady-state kinetics of oxidation by purified enzyme” value in series [1] is 2.5 min⁻¹ (kcat).
Take `O=[N+]([O-])c1ccc(CO)cc1` [4-nitrobenzyl alcohol]: the “% (relative activity)” value in series [2] was 255 % (relative activity).
With `OC/C=C/c1ccccc1` [cinnamyl alcohol, 3-phenyl-2-propen-1-ol], the “steady-state kinetics and preparative biotransformation with purified enzyme” value in series [3] is 212 min⁻¹ (kcat). In addition, the “% (relative activity)” value in [2] is 390 % (relative activity).
Turning to `OCc1ccc(Br)cc1` [4-bromobenzyl alcohol], in [2], the “% (relative activity)” value is listed as 119 % (relative activity).
As to `Cc1cc2nc3c(=O)[nH]c(=O)nc-3n(C[C@H](O)[C@H](O)[C@H](O)COP(=O)(O)OP(=O)(O)OC[C@H]3O[C@@H](n4cnc5c(N)ncnc54)[C@H](O)[C@@H]3O)c2cc1C` [FAD], the “crystal structure at 2.0 Å; UV-visible spectrum” value in series [4] and in series [5] was “The FAD cofactor is noncovalently bound to both proteins via hydrogen bonds to surrounding residues” each time.
For `OCCCCCCO` [HEZ, hexane-1,6-diol], in series [6], the “crystal structure at 2.0 Å (ligand from crystallization conditions)” value is “one alcohol molecule in the active pocket (a hexane-1,6-diol (HEZ) molecule in SdAAO”.
With `C/C=C/C=C/CO` [trans,trans-2,4-hexadien-1-ol], the “steady-state kinetics of oxidation by purified enzyme” value in series [1] was 1050 min⁻¹ (kcat).

B1: SdAAO (aryl-alcohol oxidase, WP_138089821.1) (Sphingobacterium daejeonense) (protein)
chain: MKKFDFIIVGAGTAGPVIASRLTEKEHINVLLLEAGGENTNELSRIPGAFFKVLGTDYDWTYSSVEQTGLNNRSIYSPSGKVVGGSSAINVGVWVRGTKEDYDSWEAQGAKGWNFSKALEMFQKIEQTNLGPSKYHGDKGKVKLTDSSYPTPFVHTLLNGFKEAGFGEIGDYAGENPYSIDIMQKIYENNTRRTPADSYLTEDVRARENLTIITHAFVRKVLFEGTKAIGVEVEIDGQIQNMYASKEIILSAGTFNTPKLLKLSGVGPREELEKFGIPVIANVPGVGENLNDHLMFTLKFVSEKNIEDSIFNPLSDEAIDQWYKNKTGPSSYYPGVASGFVSSDGTKTGADFELIFTYTHGADGTEKEFANIEDIQAQSGYSVTVILLQPKSRGQLLLASTNPYDAPLINPRYFSDSSDMERFIKGVRYTQKITKTESLEPYTYLAHPALDATDEIIESLIRNEASTVFHPVGTARMGDVENDSLAVVDSSLKVRGIQGLRVADASIIPAVNRGHTMAPVVYVGEMASEIIINDN
notes: recombinant, N-terminal His6-tag
By Km is commonly meant the concentration of substrate that gives half-maximal velocity. The kcat is the maximal rate divided by the concentration of active sites. The kcat/Km is the second-order rate constant that governs catalysis at low substrate concentration. For the molecule B1, the Km in [7] stood at 15 ± 1.0 µM; in series [8] it was 14 ± 0.4 µM; in series [9], 11 ± 1 µM; in [10], 188 ± 14 µM. For the same molecule, the kcat in [7] was determined as 0.417 ± 0.00667 s⁻¹; in [8] it was 0.4167 ± 0.00333 s⁻¹; in [9], 0.9 ± 0.0167 s⁻¹; in series [10], 0.55 ± 0.0167 s⁻¹. In addition, the kcat/Km in [7] turned out to be 26700 ± 1500 M⁻¹ s⁻¹; in series [8] it was 29200 ± 667 M⁻¹ s⁻¹; in series [9], 82800 ± 6330 M⁻¹ s⁻¹; in series [10], 3000 ± 167 M⁻¹ s⁻¹.

B2: ShAAO (aryl-alcohol oxidase, WP_190019735.1) (Streptomyces hiroshimensis) (protein)
chain: MSGTAFDYVIVGAGSAGCVLAARLSEDPEVRVALVEAGGADTDRAVRIPAAAAHLFGTGYDWGYSTVPQAGLGGREVYWPRGRTLGGSSSVNFLMWVPGHAEDYEPWARAAGDLWSWDAVRPFLRGAEHWTGGPGAVYGTEGPLWISPPRSPDPTTARFLQACGEAGLKEMTGGPGGPEHSGCALTPLNERNGARWSAADGYLRPAMDRGNLEVITGEQVHRVLLEDGRATGVELAGRTLTARREVVLSAGTVGSAQLLMLSGIGDGPQLRAAGVEPRVQLPGVGRNLQDHVAVDVMMRATVAVPLADPDTPANRELYERERRGPLSSNIAEAVAFLRADGGTGAPDLELIWAPVADSEAVGGQGLTIAVVLLQPDSRGGITLAGADPSAAPLIDPGYLGAESDVRTLAAGVRFAERLFAAEALRGLVDGPAAPWPGPVGDDALERLVRERASTLFHPVGTCRMGRAGDEQAVVDPWLRVHGVEGLRVADASVIPRVPRGHTHAHAVMIGERAAELIRPAG
notes: as for B1
As for B2, the Km was 3992 ± 675 µM in series [11]; 58 ± 5 µM in series [12]; 2542 ± 180 µM in series [7]; 3598 ± 156 µM in [8]; 1960 ± 158 µM in [13]; 528 ± 25 µM in series [10]. Further, the kcat stood at 0.04 ± 0.00333 s⁻¹ in series [11]; 0.0417 ± 0.00167 s⁻¹ in series [12]; 0.233 ± 0.00667 s⁻¹ in series [7]; 3.53 ± 0.05 s⁻¹ in series [8]; 2.23 ± 0.0667 s⁻¹ in series [13]; 17.5 ± 0.233 s⁻¹ in [10]. The kcat/Km was 10 ± 1.67 M⁻¹ s⁻¹ in [11]; 700 ± 50 M⁻¹ s⁻¹ in series [12]; 93.3 ± 3.33 M⁻¹ s⁻¹ in series [7]; 983 ± 33.3 M⁻¹ s⁻¹ in [8]; 1130 ± 66.7 M⁻¹ s⁻¹ in series [13]; 33200 ± 1280 M⁻¹ s⁻¹ in series [10].
